Reference: the domain aggregation screens of Martell et al. (2025)

assay: soluble fraction after stress (log2 fold change); higher = more stays soluble; pooled small domains, quantitative proteomics; settings: stress: 50 degC
How it was run: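 Quantitative proteomics served as the high-throughput read-out for pooled custom libraries of small protein domains. Each was stressed at 50°C. Aggregation propensity is expressed as the base-two log fold change in soluble protein after stress. A higher value means a larger share of the protein remains in solution.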

Row | Sequence | soluble fraction (log2)
1 | HMHGESIPIPNILHKRYADAEQIVNNLRLEIEVTDTGYVRSLPPGAILEQTPGPGERVKSGHIIYVTINAA | -0.291
2 | HMEDNLVTYPNPTSDYIYVSKKVDLTVVNMLGDILIQKQNINVLDVTELTPGMYTIVIRYNNVTTNKRIIK | -0.372
3 | HMVRSLADQVYERLRRNIVSGDLAPNARIVELDIAAQMGTSQGPVREALQRLEREGLVQRRAHSATFVTD | -0.279
4 | HMSENPLTSREIEIVQLLANGKTTKSIAEELHLSNGTIRNYVSIVLDKLNVSNRIEAIRKALDKGWL | -1.29
5 | HMAAELHPYGADSYRGDNPPAGYEIKAKEESKKFHTPSSPWYGRTIAEIWFRTEEAAEAAGFINAVK | -0.23
6 | HMVAEPTYGRTTDVLNIRSGPSTDDERIGQLSRGAVVTILEEKDGWYRLQRGYISADYVTQISAEEASNS | -0.221
7 | HMSVKSVSLRKISYKVRRGDSLYNIAKNFSLSINDITHWNSINKKSYLQPGQRLTLYINPRN | -1.71
8 | HMVEDPADNQKAADAVIKKISEIGEVTESSENLIKEARASYDALTDNQKELVTNYDVLVQAEAQLENIKD | -0.0306
9 | HMLVSVSNYLGQNVDTVKSDLEALGLVVKLKEQQTDRESENGAVLEQSIEGGSKVSAGTPITLTYGK | 0.187
10 | HMPNSIKAPAYLHNIARIYDHVLIDVEKASSAYEKLIKKYPNHPLSINAKLYLENAFNRSDEELLNMIKEN | -0.798
11 | HMYQPLRDVIFETLRKAIVSGDIKPGERLMEVSLANQMGVSRTPVREAIRRLEAEGLVTMTPRKGTHVAE | -0.399
12 | HMDTNRIIGNKIYQLRRSINMTQQELAEKVGISVTFLSEIENGRKSMSVDTLIKLSKGLQVSLDTIVF | -1.46
13 | HMLIDSEILKKTNKITIFLIYAFFSEYLINKEKKKILIGEYIKLSKDFLTIEEVKYFNHLLDDISK | 0.0074
14 | HMAMSAGEVVERIREHVGHPATIKELMRVLAIPNEERYRFRRRIKQLVEAGELIRIRGNRYGLADR | -1.85
15 | HMKELTARQIEILDFITNYEWRHGYWPSIRNIQVQFSYKSTNAVMGHLRALERKGAIERIPGQARTFRIH | -2.97
16 | HMLLSFYGTYGNVKLTGKELEDLQKEFPFDYQARIDRLSAYMESSGRKYHSHFATIRSWAQDDAKKN | -1.79
17 | HMATVGENIRRYRKAQNLSAAKLAEKVGLTQGAILHYERGIRTPGISQLEKIAHALNVSPRM | -0.0581
18 | HMQNEKLSYFVTETIVTERADLFITKKFPQFSRSQIQKLINSGNITINSNPIKASTEIINKDNIEITIPV | -1.14
19 | HMYAEVTITIEKGMTSDSVSKLLYKAGIVDDAKEFNNYIIKAGKSTKILIGEFTIQKGASYDDIIKIIA | -1.37

Row | Sequence | soluble fraction (log2)
20 | HMNSLFPLSLKYLREQANITQAELAQKLDVTQQAVGRWERGQTSPDYETLKRLSVLFNVSVDYLLGV | -0.304
21 | HMPKLPIIYVLDGHVNKNALTTSGKNKVWIEHELKKHHINSIKDVLIAMTDTEGKFYYQLYD | -1.44
22 | HMGGQEEALNRLVLRELLGTLEKKERDLIVRRYFYDQTQTKIAEALGISQVQVSRMEKRILKKMREGF | -0.914
23 | HMNVNFVQANLANLPNIQAIYQKGNEMLNDMKRGEAREIDEAYSRVDNGVGTEKDFKVLLSFRDKIIAAMQ | 0.362
24 | HMDGEITLYKVVGYIKASDFDDKKNGFVIADDYITKRQAEDTMYEWKRKKTYPYLEIKEYKGKDPYK | 0.295
25 | HMETLSKVGSTGSEVRQIQTKLKNWGYFSDKVDGIYGEKTRAAVVWFQKKNGLTADGIAGPATLKAMGIYT | -0.171
26 | HMLDRNKLNELDAYIESFEDKPSHLIMILHRAQGLFGYLPKELQIYVAEKTGVPAAKVYGVVTFYSFFTMK | -1.4
27 | HMRRPRGVFNLVPRGFKRFGFITPDGGGEDMFAHLENVRAGHVVEDRNAVEYGIGRGPDGRDQAVDIVPVP | 0.049
28 | HMEAALTLRVDKAGSLRSLLSDEQYAKTSKIIVSGEINTLDIKTLQEMSGEKGSLQSIDLSQANIVAY | -0.00676
29 | HMGRNSTPKEPLKKFEVSPITEKEVRILDGRFGPYITDGATNVTVPKTITIEEITFERALDMLAEKAAKGP | 0.0252
30 | HMGTTTGKVNATGVNFRTGPSTSYSSMGKLGIDTAVTILGKSGDWYQVKVNSTGKTGYVFAKYITITSVV | -0.0946
31 | HMRITEGEIVEIQEGDNRALVGVGEKLEGIISLDEIRGADGKLLFNVGDKITVMVMGHYNERPK | 0.15
32 | HMPRDQQENIYLLEKGKRLYEEHLGDQRQIIGHRIMIFERILESQDHAQIRRAQSEFAEFLSHYDG | -0.229
33 | HMDLDEELDFLSDADESATKLDLARAYIDMGDKDGARDILAEVLEEGRSEQKREAQALLDSI | 0.406
34 | HMSKKAIVINLLKRPDGASLKDIMQATYWQAHSVRGFISGSLTKKMGLNVESFKRPDGERAYRIN | -2.3
35 | HMKNKIYGTIVSSTSGEETVYKVFQVDSSKDITYLFRPDMIRLAHENNQALEFNEETGRGKRIEMSDLPK | 0.0213
36 | HMEETIVFGQQKAINALSSDAGLSSNELDSYLKKRYKRPLYQLSKSEGAELIQGFQDGSLSKASIMDYVS | 0.169
37 | HMVTVSAVNITPKGHTTVGFTDRSVNPPSNYYLRVGESADGWTVKDADFDDEIATLEKDGVAITLKL | -0.0772
38 | HMKPDAAKREQLIDIALRLFSQQGIARTSLNAIAREAGVTPAMLHYYFNSREQLLDVMIEERFL | -3.09
